Drawing on patent US20160347808A1 (IMMATICS BIOTECHNOLOGIES, published 2016), this text covers peptide exchange yield for 60 molecules.

B1: peptide LLTDNVVKL (SEQ ID NO 59) (peptide)
peptide: LLTDNVVKL
B2: peptide LTIEDGIFEV (SEQ ID NO 83) (peptide)
peptide: LTIEDGIFEV
B3: peptide SILQFVHMV (SEQ ID NO 68) (peptide)
peptide: SILQFVHMV
B4: peptide SLLKRDFGA (SEQ ID NO 77) (peptide)
peptide: SLLKRDFGA
B5: peptide SLAPTPVSA (SEQ ID NO 38) (peptide)
peptide: SLAPTPVSA
B6: peptide KLDIKVETV (SEQ ID NO 88) (peptide)
peptide: KLDIKVETV
B7: peptide KLLKLFQGV (SEQ ID NO 61) (peptide)
peptide: KLLKLFQGV
B8: peptide QVWEIQHTV (SEQ ID NO 51) (peptide)
peptide: QVWEIQHTV
B9: peptide ILLEKSVSV (SEQ ID NO 34) (peptide)
peptide: ILLEKSVSV
B10: peptide QLYEEPDTKL (SEQ ID NO 82) (peptide)
peptide: QLYEEPDTKL
B11: peptide ALWEKNTHL (SEQ ID NO 33) (peptide)
peptide: ALWEKNTHL
B12: peptide TLDAAQPRV (SEQ ID NO 43) (peptide)
peptide: TLDAAQPRV
B13: peptide ALLNGEYLLAA (SEQ ID NO 54) (peptide)
peptide: ALLNGEYLLAA
B14: peptide KLYERCEVV (SEQ ID NO 47) (peptide)
peptide: KLYERCEVV
B15: peptide ALSNVIHKV (SEQ ID NO 40) (peptide)
peptide: ALSNVIHKV
B16: peptide TLMAEMHVV (SEQ ID NO 50) (peptide)
peptide: TLMAEMHVV
B17: peptide GLSSAYGGL (SEQ ID NO 30) (peptide)
peptide: GLSSAYGGL
B18: peptide YLTRHLAVL (SEQ ID NO 7) (peptide)
peptide: YLTRHLAVL
B19: peptide LLYGKYVSV (SEQ ID NO 31) (peptide)
peptide: LLYGKYVSV
B20: peptide ALAELLHGA (SEQ ID NO 45) (peptide)
peptide: ALAELLHGA
B21: peptide SLNDLEKDVMLL (SEQ ID NO 67) (peptide)
peptide: SLNDLEKDVMLL
B22: peptide LLFDAPDLRL (SEQ ID NO 87) (peptide)
peptide: LLFDAPDLRL
B23: peptide KLLDLTVRI (SEQ ID NO 35) (peptide)
peptide: KLLDLTVRI
B24: peptide KLNTETFGV (SEQ ID NO 32) (peptide)
peptide: KLNTETFGV
B25: peptide QVDEVVDIMRV (SEQ ID NO 80) (peptide)
peptide: QVDEVVDIMRV
B26: peptide RLAELTVDEFL (SEQ ID NO 4) (peptide)
peptide: RLAELTVDEFL
B27: peptide SLAADQLLKL (SEQ ID NO 79) (peptide)
peptide: SLAADQLLKL
B28: peptide AMADKMDMSL (SEQ ID NO 58) (peptide)
peptide: AMADKMDMSL
B29: peptide ALMLQGVDLL (SEQ ID NO 8) (peptide)
peptide: ALMLQGVDLL
B30: peptide YLAPENGYL (SEQ ID NO 62) (peptide)
peptide: YLAPENGYL
B31: peptide SILDDSFKL (SEQ ID NO 42) (peptide)
peptide: SILDDSFKL
B32: peptide MISELEVRL (SEQ ID NO 70) (peptide)
peptide: MISELEVRL
B33: peptide ALDSSNSMQTI (SEQ ID NO 52) (peptide)
peptide: ALDSSNSMQTI
B34: peptide YLFDIAVSM (SEQ ID NO 73) (peptide)
peptide: YLFDIAVSM
B35: peptide GLDDRYSLV (SEQ ID NO 46) (peptide)
peptide: GLDDRYSLV
B36: peptide SMVEDITGLRL (SEQ ID NO 84) (peptide)
peptide: SMVEDITGLRL
B37: peptide KVFPGKISV (SEQ ID NO 86) (peptide)
peptide: KVFPGKISV
B38: peptide ALLSQQTHL (SEQ ID NO 81) (peptide)
peptide: ALLSQQTHL
B39: peptide WLFDDGGLTL (SEQ ID NO 5) (peptide)
peptide: WLFDDGGLTL
B40: peptide KLFSILSTV (SEQ ID NO 63) (peptide)
peptide: KLFSILSTV
B41: peptide VLFTDEGVPKFL (SEQ ID NO 56) (peptide)
peptide: VLFTDEGVPKFL
B42: peptide ALDPELLLL (SEQ ID NO 78) (peptide)
peptide: ALDPELLLL
B43: peptide GLLESPSIFNFTA (SEQ ID NO 36) (peptide)
peptide: GLLESPSIFNFTA
B44: peptide FLDASDPAL (SEQ ID NO 48) (peptide)
peptide: FLDASDPAL
B45: peptide YLIGEKQHYL (SEQ ID NO 76) (peptide)
peptide: YLIGEKQHYL
B46: peptide FLAELPGSLSL (SEQ ID NO 6) (peptide)
peptide: FLAELPGSLSL
B47: peptide RLWTEIPTAI (SEQ ID NO 71) (peptide)
peptide: RLWTEIPTAI
B48: peptide KTLGKLWRL (SEQ ID NO 64) (peptide)
peptide: KTLGKLWRL
B49: peptide NLLEKENYL (SEQ ID NO 57) (peptide)
peptide: NLLEKENYL
B50: peptide ILHDINSDGVL (SEQ ID NO 85) (peptide)
peptide: ILHDINSDGVL
B51: peptide VLDEDEPRFL (SEQ ID NO 60) (peptide)
peptide: VLDEDEPRFL
B52: peptide GMLNEAEGKAIKL (SEQ ID NO 69) (peptide)
peptide: GMLNEAEGKAIKL
B53: peptide EMIENIQSV (SEQ ID NO 75) (peptide)
peptide: EMIENIQSV
B54: peptide GLDDGPDFL (SEQ ID NO 66) (peptide)
peptide: GLDDGPDFL
B55: peptide YLMGFLHAV (SEQ ID NO 74) (peptide)
peptide: YLMGFLHAV
B56: peptide SLESKLTSV (SEQ ID NO 44) (peptide)
peptide: SLESKLTSV
B57: peptide FLLGSEIKL (SEQ ID NO 53) (peptide)
peptide: FLLGSEIKL
B58: peptide YLLDYPNNLL (SEQ ID NO 72) (peptide)
peptide: YLLDYPNNLL
B59: peptide ILDDSFKLL (SEQ ID NO 41) (peptide)
peptide: ILDDSFKLL
B60: peptide GLFAGLGGAGA (SEQ ID NO 37) (peptide)
peptide: GLFAGLGGAGA

The assay has as its target T1, HLA-A*02:01 (peptide-receptive MHC class I monomer from UV-ligand exchange) (human).
T1 construct: Monomers were captured on streptavidin-coated plates
Description: UV-exchange ELISA (anti-b2m); exchange yield grade: + >=10%, ++ >=20%, +++ >=50%, ++++ >=75%. The source says:
Candidate peptides for T cell based therapies according to the present invention were further tested for their MHC binding capacity (affinity). The individual peptide-MHC complexes were produced by UV-ligand exchange, where a UV-sensitive peptide is cleaved upon UV-irradiation, and exchanged with the peptide of interest as analyzed. Only peptide candidates that can effectively bind and stabilize the peptide-receptive MHC molecules prevent dissociation of the MHC complexes. To determine the yield of the exchange reaction, an ELISA was performed based on the detection of the light chain (β2m) of stabilized MHC complexes. The assay was performed as generally described in Rodenko et al. (Rodenko et al., 2006).
96 well MAXISorp plates (NUNC) were coated over night with 2 ug/ml streptavidin in PBS at room temperature, washed 4× and blocked for 1 h at 37° C. in 2% BSA containing blocking buffer. Refolded HLA-A*02:01/MLA-001 monomers served as standards, covering the range of 15-500 ng/ml. Peptide-MHC monomers of the UV-exchange reaction were diluted 100 fold in blocking buffer. Samples were incubated for 1 h at 37° C., washed four times, incubated with 2 ug/ml HRP conjugated anti-β2m for 1 h at 37° C., washed again and detected with TMB solution that is stopped with […]. Absorption was measured at 450 nm. Candidate peptides that show a high exchange yield (preferably higher than 50%, most preferred higher than 75%) are generally preferred for a generation and production of antibodies or fragments thereof, and/or T cell receptors or fragments thereof, as they show sufficient avidity to the MHC molecules and prevent dissociation of the MHC complexes.
As for B1, the peptide exchange yield fell in the range of 50 to 75%.
As to B2, the peptide exchange yield was in the range of 50 to 75%.
As for B3, the figure is 50 to 75%; as for B4, 20 to 50%.
As for B5, the figure is 20 to 50%.
B6: the peptide exchange yield is at least 75%.
As for B7, the figure is 50 to 75%.
In the case of B8, the peptide exchange yield lay in the range of 20 to 50%.
As for B9, the figure is 50 to 75%.
Turning to B10, the peptide exchange yield was in the range of 20 to 50%.
As for B11, the figure is 50 to 75%; as for B12, 20 to 50%; as for B13, 50 to 75%.
As for B14, the figure is 20 to 50%.
In the case of B15, the peptide exchange yield was in the range of 20 to 50%.
As for B16, the figure is 50 to 75%; as for B17, 10 to 20%.
As for B18, the figure is 20 to 50%; as for B19, 50 to 75%; as for B20, 50 to 75%.
As for B21, the figure is 50 to 75%; as for B22, 50 to 75%.
Take B23: the peptide exchange yield lay in the range of 50 to 75%.
Turning to B24, the peptide exchange yield is 20 to 50%.
As for B25, the figure is 20 to 50%.
B26: the peptide exchange yield lay within 50 to 75%.
As for B27, the figure is 20 to 50%; as for B28, 20 to 50%; as for B29, 50 to 75%.
As for B30, the figure is 20 to 50%.
As for B31, the figure is at least 75%; as for B32, 50 to 75%; as for B33, 20 to 50%.
Take B34: the peptide exchange yield lay in the range of 50 to 75%.
On to B35, for which the peptide exchange yield is 50 to 75%.
As for B36, the figure is 50 to 75%; as for B37, 20 to 50%.
With B38, the peptide exchange yield was 50 to 75%.
As for B39, the figure is at least 75%.
As for B40, the figure is 20 to 50%.
In the case of B41, the peptide exchange yield is 20 to 50%.
With B42, the peptide exchange yield is 20 to 50%.
As for B43, the figure is 50 to 75%; as for B44, 20 to 50%; as for B45, 50 to 75%.
As for B46, the figure is 50 to 75%; as for B47, 50 to 75%.
As for B48, the figure is 20 to 50%; as for B49, 50 to 75%.
As to B50, the peptide exchange yield lay within 20 to 50%.
As for B51, the figure is 20 to 50%; as for B52, 20 to 50%; as for B53, 20 to 50%.
As for B54, the figure is 20 to 50%; as for B55, 50 to 75%.
As for B56, the figure is 50 to 75%.
Turning to B57, the peptide exchange yield was 50 to 75%.
As for B58, the figure is 50 to 75%.
As for B59, the figure is 20 to 50%; as for B60, 50 to 75%.
